Numbered stars: 1 amine (or outer) side, 2 acyl side, 3 side chain; on linkers, the order of the positions; unused ones are H or OH. Bridge positions count the residues as written; N and C are the ends. Side chains are listed from the residue outwards. Ends that are not written are not given here. * marks the point of attachment. C20 diacid = O=C(O)CCCCCCCCCCCCCCCCCCC(=O)*; γGlu = O=C(O)[C@H](CCC(=O)[*:2])N[*:1]; AEEA = NCCOCCOCC(=O)O
B1: N^ε1-[(4S)-4-carboxy-4-(19-carboxynonadecanoylamino)butanoyl]-[His14,Arg17,Pro21,Pro27]-h-amylin (peptide)
peptide: K([γGlu-C20 diacid])CNTATCATQRLAHFLRHSSPNFGAIPSSTNVGSNTY-NH2
modifications: disulfide 2-7; N-terminus assumed
SMILES: CC[C@H](C)[C@H](NC(=O)[C@H](C)NC(=O)CNC(=O)[C@H](Cc1ccccc1)NC(=O)[C@H](CC(N)=O)NC(=O)[C@@H]1CCCN1C(=O)[C@H](CO)NC(=O)[C@H](CO)NC(=O)[C@H](Cc1c[nH]cn1)NC(=O)[C@H](CCCNC(=N)N)NC(=O)[C@H](CC(C)C)NC(=O)[C@H](Cc1ccccc1)NC(=O)[C@H](Cc1c[nH]cn1)NC(=O)[C@H](C)NC(=O)[C@H](CC(C)C)NC(=O)[C@H](CCCNC(=N)N)NC(=O)[C@H](CCC(N)=O)NC(=O)[C@@H](NC(=O)[C@H](C)NC(=O)[C@@H]1CSSC[C@H](NC(=O)[C@@H](N)CCCCNC(=O)CC[C@H](NC(=O)CCCCCCCCCCCCCCCCCCC(=O)O)C(=O)O)C(=O)N[C@@H](CC(N)=O)C(=O)N[C@@H]([C@@H](C)O)C(=O)N[C@@H](C)C(=O)N[C@@H]([C@@H](C)O)C(=O)N1)[C@@H](C)O)C(=O)N1CCC[C@H]1C(=O)N[C@@H](CO)C(=O)N[C@@H](CO)C(=O)N[C@H](C(=O)N[C@@H](CC(N)=O)C(=O)N[C@H](C(=O)NCC(=O)N[C@@H](CO)C(=O)N[C@@H](CC(N)=O)C(=O)N[C@H](C(=O)N[C@@H](Cc1ccc(O)cc1)C(N)=O)[C@@H](C)O)C(C)C)[C@@H](C)O
notes: also called compound 70
B2: N^ε1-[(4S)-4-carboxy-4-[[(4S)-4-carboxy-4-(19-carboxynonadecanoylamino)butanoyl]amino]butanoyl]-[Arg17,Pro21,Pro27,His34]-h-amylin (peptide)
peptide: K([γGlu-γGlu-C20 diacid])CNTATCATQRLANFLRHSSPNFGAIPSSTNVGHNTY-NH2
modifications: disulfide 2-7; N-terminus assumed
SMILES: CC[C@H](C)[C@H](NC(=O)[C@H](C)NC(=O)CNC(=O)[C@H](Cc1ccccc1)NC(=O)[C@H](CC(N)=O)NC(=O)[C@@H]1CCCN1C(=O)[C@H](CO)NC(=O)[C@H](CO)NC(=O)[C@H](Cc1c[nH]cn1)NC(=O)[C@H](CCCNC(=N)N)NC(=O)[C@H](CC(C)C)NC(=O)[C@H](Cc1ccccc1)NC(=O)[C@H](CC(N)=O)NC(=O)[C@H](C)NC(=O)[C@H](CC(C)C)NC(=O)[C@H](CCCNC(=N)N)NC(=O)[C@H](CCC(N)=O)NC(=O)[C@@H](NC(=O)[C@H](C)NC(=O)[C@@H]1CSSC[C@H](NC(=O)[C@@H](N)CCCCNC(=O)CC[C@H](NC(=O)CC[C@H](NC(=O)CCCCCCCCCCCCCCCCCCC(=O)O)C(=O)O)C(=O)O)C(=O)N[C@@H](CC(N)=O)C(=O)N[C@@H]([C@@H](C)O)C(=O)N[C@@H](C)C(=O)N[C@@H]([C@@H](C)O)C(=O)N1)[C@@H](C)O)C(=O)N1CCC[C@H]1C(=O)N[C@@H](CO)C(=O)N[C@@H](CO)C(=O)N[C@H](C(=O)N[C@@H](CC(N)=O)C(=O)N[C@H](C(=O)NCC(=O)N[C@@H](Cc1c[nH]cn1)C(=O)N[C@@H](CC(N)=O)C(=O)N[C@H](C(=O)N[C@@H](Cc1ccc(O)cc1)C(N)=O)[C@@H](C)O)C(C)C)[C@@H](C)O
notes: also called compound 86
B3: N^ε1-[(4S)-4-carboxy-4-[[(4S)-4-carboxy-4-(19-carboxynonadecanoylamino)butanoyl]amino]butanoyl]-[Asp14,Arg17,Pro21,Pro27,Asp35]-h-amylin (peptide)
peptide: K([γGlu-γGlu-C20 diacid])CNTATCATQRLADFLRHSSPNFGAIPSSTNVGSDTY-NH2
modifications: disulfide 2-7; N-terminus assumed
SMILES: CC[C@H](C)[C@H](NC(=O)[C@H](C)NC(=O)CNC(=O)[C@H](Cc1ccccc1)NC(=O)[C@H](CC(N)=O)NC(=O)[C@@H]1CCCN1C(=O)[C@H](CO)NC(=O)[C@H](CO)NC(=O)[C@H](Cc1c[nH]cn1)NC(=O)[C@H](CCCNC(=N)N)NC(=O)[C@H](CC(C)C)NC(=O)[C@H](Cc1ccccc1)NC(=O)[C@H](CC(=O)O)NC(=O)[C@H](C)NC(=O)[C@H](CC(C)C)NC(=O)[C@H](CCCNC(=N)N)NC(=O)[C@H](CCC(N)=O)NC(=O)[C@@H](NC(=O)[C@H](C)NC(=O)[C@@H]1CSSC[C@H](NC(=O)[C@@H](N)CCCCNC(=O)CC[C@H](NC(=O)CC[C@H](NC(=O)CCCCCCCCCCCCCCCCCCC(=O)O)C(=O)O)C(=O)O)C(=O)N[C@@H](CC(N)=O)C(=O)N[C@@H]([C@@H](C)O)C(=O)N[C@@H](C)C(=O)N[C@@H]([C@@H](C)O)C(=O)N1)[C@@H](C)O)C(=O)N1CCC[C@H]1C(=O)N[C@@H](CO)C(=O)N[C@@H](CO)C(=O)N[C@H](C(=O)N[C@@H](CC(N)=O)C(=O)N[C@H](C(=O)NCC(=O)N[C@@H](CO)C(=O)N[C@@H](CC(=O)O)C(=O)N[C@H](C(=O)N[C@@H](Cc1ccc(O)cc1)C(N)=O)[C@@H](C)O)C(C)C)[C@@H](C)O
notes: also called compound 2
B4: N^ε1-[(4S)-4-carboxy-4-[[(4S)-4-carboxy-4-(19-carboxynonadecanoylamino)butanoyl]amino]butanoyl]-[Glu14,Arg17,Pro21,Pro27,Arg35]-h-amylin (peptide)
peptide: K([γGlu-γGlu-C20 diacid])CNTATCATQRLAEFLRHSSPNFGAIPSSTNVGSRTY-NH2
modifications: disulfide 2-7; N-terminus assumed
SMILES: CC[C@H](C)[C@H](NC(=O)[C@H](C)NC(=O)CNC(=O)[C@H](Cc1ccccc1)NC(=O)[C@H](CC(N)=O)NC(=O)[C@@H]1CCCN1C(=O)[C@H](CO)NC(=O)[C@H](CO)NC(=O)[C@H](Cc1c[nH]cn1)NC(=O)[C@H](CCCNC(=N)N)NC(=O)[C@H](CC(C)C)NC(=O)[C@H](Cc1ccccc1)NC(=O)[C@H](CCC(=O)O)NC(=O)[C@H](C)NC(=O)[C@H](CC(C)C)NC(=O)[C@H](CCCNC(=N)N)NC(=O)[C@H](CCC(N)=O)NC(=O)[C@@H](NC(=O)[C@H](C)NC(=O)[C@@H]1CSSC[C@H](NC(=O)[C@@H](N)CCCCNC(=O)CC[C@H](NC(=O)CC[C@H](NC(=O)CCCCCCCCCCCCCCCCCCC(=O)O)C(=O)O)C(=O)O)C(=O)N[C@@H](CC(N)=O)C(=O)N[C@@H]([C@@H](C)O)C(=O)N[C@@H](C)C(=O)N[C@@H]([C@@H](C)O)C(=O)N1)[C@@H](C)O)C(=O)N1CCC[C@H]1C(=O)N[C@@H](CO)C(=O)N[C@@H](CO)C(=O)N[C@H](C(=O)N[C@@H](CC(N)=O)C(=O)N[C@H](C(=O)NCC(=O)N[C@@H](CO)C(=O)N[C@@H](CCCNC(=N)N)C(=O)N[C@H](C(=O)N[C@@H](Cc1ccc(O)cc1)C(N)=O)[C@@H](C)O)C(C)C)[C@@H](C)O
notes: also called compound 89
B5: N^ε1-[2-[2-[2-[[(4S)-4-carboxy-4-(19-carboxynonadecanoylamino)butanoyl]amino]ethoxy]ethoxy]acetyl]-[Arg17,Pro21,Pro27]-h-amylin (peptide)
peptide: K([AEEA-γGlu-C20 diacid])CNTATCATQRLANFLRHSSPNFGAIPSSTNVGSNTY-NH2
modifications: disulfide 2-7; N-terminus assumed
SMILES: CC[C@H](C)[C@H](NC(=O)[C@H](C)NC(=O)CNC(=O)[C@H](Cc1ccccc1)NC(=O)[C@H](CC(N)=O)NC(=O)[C@@H]1CCCN1C(=O)[C@H](CO)NC(=O)[C@H](CO)NC(=O)[C@H](Cc1c[nH]cn1)NC(=O)[C@H](CCCNC(=N)N)NC(=O)[C@H](CC(C)C)NC(=O)[C@H](Cc1ccccc1)NC(=O)[C@H](CC(N)=O)NC(=O)[C@H](C)NC(=O)[C@H](CC(C)C)NC(=O)[C@H](CCCNC(=N)N)NC(=O)[C@H](CCC(N)=O)NC(=O)[C@@H](NC(=O)[C@H](C)NC(=O)[C@@H]1CSSC[C@H](NC(=O)[C@@H](N)CCCCNC(=O)COCCOCCNC(=O)CC[C@H](NC(=O)CCCCCCCCCCCCCCCCCCC(=O)O)C(=O)O)C(=O)N[C@@H](CC(N)=O)C(=O)N[C@@H]([C@@H](C)O)C(=O)N[C@@H](C)C(=O)N[C@@H]([C@@H](C)O)C(=O)N1)[C@@H](C)O)C(=O)N1CCC[C@H]1C(=O)N[C@@H](CO)C(=O)N[C@@H](CO)C(=O)N[C@H](C(=O)N[C@@H](CC(N)=O)C(=O)N[C@H](C(=O)NCC(=O)N[C@@H](CO)C(=O)N[C@@H](CC(N)=O)C(=O)N[C@H](C(=O)N[C@@H](Cc1ccc(O)cc1)C(N)=O)[C@@H](C)O)C(C)C)[C@@H](C)O
notes: also called compound 41
B6: N^ε-[(4S)-4-carboxy-4-(19-carboxynonadecanoylamino)butanoyl]Lys[Arg1,Arg17,Pro21,Pro27,His35]-h-amylin (peptide)
peptide: K([γGlu-C20 diacid])RCNTATCATQRLANFLRHSSPNFGAIPSSTNVGSHTY-NH2
modifications: disulfide 3-8; N-terminus assumed
SMILES: CC[C@H](C)[C@H](NC(=O)[C@H](C)NC(=O)CNC(=O)[C@H](Cc1ccccc1)NC(=O)[C@H](CC(N)=O)NC(=O)[C@@H]1CCCN1C(=O)[C@H](CO)NC(=O)[C@H](CO)NC(=O)[C@H](Cc1c[nH]cn1)NC(=O)[C@H](CCCNC(=N)N)NC(=O)[C@H](CC(C)C)NC(=O)[C@H](Cc1ccccc1)NC(=O)[C@H](CC(N)=O)NC(=O)[C@H](C)NC(=O)[C@H](CC(C)C)NC(=O)[C@H](CCCNC(=N)N)NC(=O)[C@H](CCC(N)=O)NC(=O)[C@@H](NC(=O)[C@H](C)NC(=O)[C@@H]1CSSC[C@H](NC(=O)[C@H](CCCNC(=N)N)NC(=O)[C@@H](N)CCCCNC(=O)CC[C@H](NC(=O)CCCCCCCCCCCCCCCCCCC(=O)O)C(=O)O)C(=O)N[C@@H](CC(N)=O)C(=O)N[C@@H]([C@@H](C)O)C(=O)N[C@@H](C)C(=O)N[C@@H]([C@@H](C)O)C(=O)N1)[C@@H](C)O)C(=O)N1CCC[C@H]1C(=O)N[C@@H](CO)C(=O)N[C@@H](CO)C(=O)N[C@H](C(=O)N[C@@H](CC(N)=O)C(=O)N[C@H](C(=O)NCC(=O)N[C@@H](CO)C(=O)N[C@@H](Cc1c[nH]cn1)C(=O)N[C@H](C(=O)N[C@@H](Cc1ccc(O)cc1)C(N)=O)[C@@H](C)O)C(C)C)[C@@H](C)O
notes: 38 residues; also called compound 44

Target: T1, human amylin 3(a) receptor (human calcitonin receptor co-expressed with RAMP-3) (human, UniProt P30988 25-474; O60896 24-148, limits assumed)
T1 sequence (looked up) 1: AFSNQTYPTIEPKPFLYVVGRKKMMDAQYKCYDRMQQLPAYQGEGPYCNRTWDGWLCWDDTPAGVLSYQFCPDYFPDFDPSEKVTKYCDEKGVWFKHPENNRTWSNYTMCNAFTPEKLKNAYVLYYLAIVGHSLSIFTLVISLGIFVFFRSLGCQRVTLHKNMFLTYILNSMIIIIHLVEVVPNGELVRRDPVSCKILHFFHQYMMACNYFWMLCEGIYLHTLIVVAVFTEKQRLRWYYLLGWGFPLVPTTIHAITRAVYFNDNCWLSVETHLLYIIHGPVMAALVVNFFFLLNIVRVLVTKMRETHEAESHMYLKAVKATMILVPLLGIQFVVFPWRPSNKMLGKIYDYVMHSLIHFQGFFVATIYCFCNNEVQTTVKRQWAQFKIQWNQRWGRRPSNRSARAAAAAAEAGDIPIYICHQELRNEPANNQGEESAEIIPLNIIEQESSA
T1 sequence (looked up) 2: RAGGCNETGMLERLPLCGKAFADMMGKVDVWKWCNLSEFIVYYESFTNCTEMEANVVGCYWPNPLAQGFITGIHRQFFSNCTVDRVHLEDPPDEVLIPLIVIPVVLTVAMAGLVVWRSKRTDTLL
Assay: cell-based or functional assay

First: B1
Second: B2
The “Ratio hCT/hAmylin funct. (hCTR EC50 over hAmylin-R EC50)” value of the first is lower: 17.9 for the first, 64.4 for the second.

Compared with B3, B4 is higher in “Ratio hCT/hAmylin funct. (hCTR EC50 over hAmylin-R EC50)” value: 16.4 for the first, 27.8 for the second.

Going from B5 to B6, the “Ratio hCT/hAmylin funct. (hCTR EC50 over hAmylin-R EC50)” value rises from 16.7 to 24.

Compared with B1, B2 is higher in “hAmylin-R funct. EC50 (pM)” value: 40 pM for the first, 298 pM for the second.

Going from B3 to B4, the “hAmylin-R funct. EC50 (pM)” value rises from 182 pM to 404 pM.

Compared with B5, B6 is lower in “hAmylin-R funct. EC50 (pM)” value: 260 pM for the first, 198 pM for the second.
